Measurements from patent US20250099634A1, “METHOD OF TREATING CANCER” (Novartis AG, priority 2023, published 2025).
Like-named read-outs stand apart in the source and are kept apart here.

Key:
[1] = NETTER-2 deaths (Safety Set); format: in vivo, human
[2] = NETTER-2 worst post-baseline biochemistry abnormalities based on CTC grades (Safety Set); format: in vivo, human
From the text: (§1) The laboratory assessments require that blood samples for hematology and blood chemistry, and a urine sample for urinalysis are taken. Laboratory assessments will be performed at the investigational site.
(§2) Blood tests performed 4 weeks after any treatment cannot serve as baseline values for the next treatment.
(§3) All laboratory data will be listed by treatment group, subject, and visit/time and if normal ranges are available abnormalities will be flagged. Summary statistics will be provided by treatment and visit/time. Shift tables using the low/normal/high/(low and high) classification will be used to compare baseline to the worst on-treatment value.
(§4) Grading of laboratory values will be assigned programmatically as per NCI Common Terminology Criteria for Adverse Events (CTCAE) version 5.0 or current version. The calculation of CTCAE grades will be based on the observed laboratory values only, clinical assessments will not be taken into account.
(§5) The following summaries will be generated separately for hematology, and biochemistry tests: • 1. Listing of all laboratory data with values flagged to show the corresponding CTCAE grades if applicable and the classifications relative to the laboratory normal ranges • 2. For laboratory tests where grades are defined by CTCAE, • 3. Worst post-baseline CTCAE grade (regardless of the baseline status). Each subject will be counted only once for the worst grade observed post-baseline. • 4. Shift tables using CTCAE grades to compare baseline to the worst on-treatment value • 5. For laboratory tests where grades are not defined by CTCAE, • 6. Shift tables using the low/normal/high/(low and high) classification to compare baseline to the worst on-treatment value.

[3] = NETTER-2 worst post-baseline hematology abnormalities based on CTC grades (Safety Set); format: in vivo, human
From the text: as §1, §2, §3, §4, §5

[4] = All grades (CTCAE v5.0), randomized treatment period, Safety Set
[5] = All grades, randomized treatment period, Safety Set
[6] = Grade >=3, randomized treatment period, Safety Set
[7] = all grades, randomized treatment period
[8] = most frequent AEs, summary table

SMILES: C[C@@H](O)[C@H](NC(=O)[C@@H]1CSSC[C@H](NC(=O)[C@@H](Cc2ccccc2)NC(=O)CN2CCN(CC(=O)[O-])CCN(CC(=O)[O-])CCN(CC(=O)[O-])CC2)C(=O)N[C@@H](Cc2ccc(O)cc2)C(=O)N[C@H](Cc2c[nH]c3ccccc23)C(=O)N[C@@H](CCCCN)C(=O)N[C@@H]([C@@H](C)O)C(=O)N1)C(=O)O.[177Lu+3] [Lutathera, ^177Lu-DOTA^0-Tyr^3-Octreotate]
- Number of Subjects who Died (Overall) ([1]; Safety Set): 32 (21.8) n (%)
- Number of Subjects who Died (Overall), primary reason Adverse Event ([1]; Safety Set): 2 (1.4) n (%)
- Number of Subjects who Died (Overall), primary reason Disease under Study ([1]; Safety Set): 30 (20.4) n (%)
- Number of Subjects who Died on-treatment in randomized treatment period (within 30 days of last dose), primary reason Disease under Study ([1]; Safety Set): 2 (1.4) n (%)
- Number of Subjects who Died on-treatment in re-treatment period (within 30 days of last dose) ([1]; Safety Set): 0 n (%)
- Number of subjects who died in the post-treatment follow up period ([1]; Safety Set): 30 (20.4) n (%)
- Number of subjects who died in the post-treatment follow up period, primary reason Adverse Event ([1]; Safety Set): 2 (1.4) n (%)
- Number of subjects who died in the post-treatment follow up period, primary reason Disease under Study ([1]; Safety Set): 28 (19.0) n (%)
- cause of death: adverse event ([1]; during the study): 1.4%
- cause of death: disease under study ([1]; during the study): 20.4%
- subjects died during the study ([1]; during the study): 21.8%
- subjects died within 30 days after the last dose ([1]; randomized treatment period): 1.4%
- Worst post-baseline abnormality: Bilirubin (umol/L)-Increase [2, 4]: 26 (17.7) n (%)
- Worst post-baseline abnormality: Creatinine (umol/L)-Increase [2, 4]: 30 (20.4) n (%)
- Worst post-baseline abnormality: Sodium (mmol/L)-Decrease [2, 4]: 32 (21.8) n (%)
- Worst post-baseline abnormality: Gamma Glutamyl Transferase (U/L)-Increase ([2]; Grade 3/4 (CTCAE v5.0), randomized treatment period, Safety Set): 38 (25.9) n (%)
- Grade 3/4 biochemical lab abnormality: aspartate aminotransferase increase ([2]; in vivo): 2.7%
- Grade 3/4 biochemical lab abnormality: bilirubin increase ([2]; in vivo): 2.7%
- Worst post-baseline abnormality: Alanine Aminotransferase (U/L)-Increase ([2]; in vivo): 6 (4.1) n (%)
- Worst post-baseline abnormality: Bilirubin (umol/L)-Increase ([2]; in vivo): 4 (2.7) n (%)
- Worst post-baseline abnormality: Creatinine (umol/L)-Increase ([2]; in vivo): 0 n (%)
- Worst post-baseline abnormality: Gamma Glutamyl Transferase (U/L)-Increase ([2]; in vivo): 102 (69.4) n (%)
- Worst post-baseline abnormality: Sodium (mmol/L)-Decrease ([2]; in vivo): 1 (0.7) n (%)
- Grade 3/4 biochemical lab abnormality: GGT increase ([2]; randomized treatment period): 25.9%
- Worst post-baseline abnormality: Neutrophils (10E9/L)-Decrease [3, 4]: 55 (37.4) n (%)
- Grade 3/4 hematologic lab abnormality: lymphocytes decrease ([3]; in vivo): 38.1%
- Worst post-baseline abnormality: Leukocytes (10E9/L)-Increase ([3]; in vivo): 0 n (%)
- Worst post-baseline abnormality: Neutrophils (10E9/L)-Decrease ([3]; in vivo): 5 (3.4) n (%)
- AEs leading to discontinuation of Any Treatment (Lutathera, Octreotide) [5]: 7 (4.8) n (%)
- AEs leading to discontinuation of Lutathera [5]: 3 (2.0) n (%)
- AEs leading to discontinuation of Octreotide [5]: 5 (3.4) n (%)
- AEs leading to dose interruption of Any Treatment (Lutathera, Octreotide) [5]: 23 (15.6) n (%)
- AEs leading to dose interruption of Lutathera [5]: 14 (9.5) n (%)
- AEs leading to dose reduction of Any Treatment (Lutathera, Octreotide) [5]: 3 (2.0) n (%)
- AEs leading to dose reduction of Lutathera [5]: 2 (1.4) n (%)
- AEs leading to dose reduction of Octreotide [5]: 1 (0.7) n (%)
- AEs requiring additional therapy [5]: 109 (74.1) n (%)
- Adverse event: Abdominal pain [5]: 26 (17.7) n (%)
- Adverse event: Alanine aminotransferase increased [5]: 16 (10.9) n (%)
- Adverse event: Alopecia [5]: 22 (15.0) n (%)
- Adverse event: Anaemia [5]: 29 (19.7) n (%)
- Adverse event: Aspartate aminotransferase increased [5]: 16 (10.9) n (%)
- Adverse event: Asthenia [5]: 28 (19.0) n (%)
- Adverse event: COVID-19 [5]: 28 (19.0) n (%)
- Adverse event: Constipation [5]: 15 (10.2) n (%)
- Adverse event: Diarrhoea [5]: 38 (25.9) n (%)
- Adverse event: Fatigue [5]: 29 (19.7) n (%)
- Adverse event: Gamma-glutamyltransferase increased [5]: 12 (8.2) n (%)
- Adverse event: Headache [5]: 16 (10.9) n (%)
- Adverse event: Hyperglycaemia [5]: 20 (13.6) n (%)
- Adverse event: Lymphocyte count decreased [5]: 16 (10.9) n (%)
- Adverse event: Nausea [5]: 40 (27.2) n (%)
- Adverse event: Oedema peripheral [5]: 17 (11.6) n (%)
- Adverse event: Platelet count decreased [5]: 25 (17.0) n (%)
- Adverse event: Vomiting [5]: 21 (14.3) n (%)
- Adverse event: Weight increased [5]: 18 (12.2) n (%)
- Adverse events [5]: 136 (92.5) n (%)
- Adverse events Related to Amino Acids [5]: 22 (15.0) n (%)
- Adverse events Related to Any Treatment [5]: 101 (68.7) n (%)
- Adverse events Related to Lutathera [5]: 96 (65.3) n (%)
- Adverse events Related to Octreotide [5]: 55 (37.4) n (%)
- Adverse events: Number of subjects with at least one event [5]: 136 (92.5) n (%)
- AEs leading to discontinuation of Any Treatment (Lutathera, Octreotide) [6]: 4 (2.7) n (%)
- AEs leading to discontinuation of Lutathera [6]: 1 (0.7) n (%)
- AEs leading to discontinuation of Octreotide [6]: 3 (2.0) n (%)
- AEs leading to dose interruption of Any Treatment (Lutathera, Octreotide) [6]: 7 (4.8) n (%)
- AEs leading to dose interruption of Lutathera [6]: 3 (2.0) n (%)
- AEs leading to dose interruption of Octreotide [6]: 7 (4.8) n (%)
- AEs leading to dose reduction of Any Treatment (Lutathera, Octreotide) [6]: 1 (0.7) n (%)
- AEs leading to dose reduction of Lutathera [6]: 1 (0.7) n (%)
- AEs leading to dose reduction of Octreotide [6]: 0 n (%)
- AEs requiring additional therapy [6]: 28 (19.0) n (%)
- Adverse event: Abdominal pain [6]: 4 (2.7) n (%)
- Adverse event: Alanine aminotransferase increased [6]: 1 (0.7) n (%)
- Adverse event: Alopecia [6]: 0 n (%)
- Adverse event: Anaemia [6]: 1 (0.7) n (%)
- Adverse event: Aspartate aminotransferase increased [6]: 1 (0.7) n (%)
- Adverse event: Asthenia [6]: 1 (0.7) n (%)
- Adverse event: COVID-19 [6]: 0 n (%)
- Adverse event: Constipation [6]: 1 (0.7) n (%)
- Adverse event: Decreased appetite [6]: 0 n (%)
- Adverse event: Diarrhoea [6]: 2 (1.4) n (%)
- Adverse event: Fatigue [6]: 0 n (%)
- Adverse event: Gamma-glutamyltransferase increased [6]: 7 (4.8) n (%)
- Adverse event: Headache [6]: 0 n (%)
- Adverse event: Hyperglycaemia [6]: 0 n (%)
- Adverse event: Lymphocyte count decreased [6]: 8 (5.4) n (%)
- Adverse event: Nausea [6]: 1 (0.7) n (%)
- Adverse event: Oedema peripheral [6]: 0 n (%)
- Adverse event: Platelet count decreased [6]: 2 (1.4) n (%)
- Adverse event: Vomiting [6]: 1 (0.7) n (%)
- Adverse event: Weight increased [6]: 2 (1.4) n (%)
- Adverse event: White blood cell count decreased [6]: 3 (2.0) n (%)
- Adverse events [6]: 52 (35.4) n (%)
- Adverse events Related to Amino Acids [6]: 1 (0.7) n (%)
- Adverse events Related to Any Treatment [6]: 23 (15.6) n (%)
- Adverse events Related to Lutathera [6]: 22 (15.0) n (%)
- Adverse events Related to Octreotide [6]: 2 (1.4) n (%)
- Adverse events: Number of subjects with at least one event [6]: 52 (35.4) n (%)
- adverse event by preferred term: abdominal pain [7]: 17.7%
- adverse event by preferred term: diarrhoea [7]: 25.9%
- adverse event by preferred term: nausea [7]: 27.2%
- safety findings in NETTER-2 (consistent with established safety profile): No new or unexpected safety findings
- Incidence of AEs: Abdominal pain [8]: 26 (17.7) (%)
- Incidence of AEs: Diarrhoea [8]: 38 (25.9) (%)
- Incidence of AEs: Nausea [8]: 40 (27.2) (%)
- AEs leading to discontinuation of Lutathera (randomized treatment period): 2.0% vs. NA
- AEs leading to discontinuation of Lutathera and/or Octreotide (randomized treatment period): 4.8%
- AEs leading to discontinuation of Octreotide (randomized treatment period): 3.4%
- Any AEs (randomized treatment period): 92.5%
- Grade 3/4 AE: GGT increased (randomized treatment period): 4.8%
- Grade 3/4 AE: Lymphocyte count decreased (randomized treatment period): 5.4%
- Grade 3/4 AE: abdominal pain (randomized treatment period): 2.7%
- Grade 3/4 AE: small intestinal obstruction (randomized treatment period): 3.4%
- Grade ≥3 AEs (randomized treatment period): 35.4%
- Grade ≥3 AEs, Treatment-related (randomized treatment period): 15.6%
